Measured values as given in US20160272683A1 (Novo Nordisk, published 2016).
Numbered stars: 1 amine (or outer) side, 2 acyl side, 3 side chain; on linkers, the order of the positions; unused ones are H or OH. Ends that are not written are not given here. * marks the point of attachment. C20 diacid = O=C(O)CCCCCCCCCCCCCCCCCCC(=O)*; C18 diacid = O=C(O)CCCCCCCCCCCCCCCCC(=O)*; C16 diacid = O=C(O)CCCCCCCCCCCCCCC(=O)*; γGlu = O=C(O)[C@H](CCC(=O)[*:2])N[*:1]; C14 diacid = O=C(O)CCCCCCCCCCCCC(=O)*; C12 diacid = O=C(O)CCCCCCCCCCC(=O)*; Palmitoyl = CCCCCCCCCCCCCCCC(=O)*; AEEA = NCCOCCOCC(=O)O

T1: human amylin receptor (human calcitonin receptor + human RAMP3) (human) (UniProt P30988)
T1 sequence (looked up) 1: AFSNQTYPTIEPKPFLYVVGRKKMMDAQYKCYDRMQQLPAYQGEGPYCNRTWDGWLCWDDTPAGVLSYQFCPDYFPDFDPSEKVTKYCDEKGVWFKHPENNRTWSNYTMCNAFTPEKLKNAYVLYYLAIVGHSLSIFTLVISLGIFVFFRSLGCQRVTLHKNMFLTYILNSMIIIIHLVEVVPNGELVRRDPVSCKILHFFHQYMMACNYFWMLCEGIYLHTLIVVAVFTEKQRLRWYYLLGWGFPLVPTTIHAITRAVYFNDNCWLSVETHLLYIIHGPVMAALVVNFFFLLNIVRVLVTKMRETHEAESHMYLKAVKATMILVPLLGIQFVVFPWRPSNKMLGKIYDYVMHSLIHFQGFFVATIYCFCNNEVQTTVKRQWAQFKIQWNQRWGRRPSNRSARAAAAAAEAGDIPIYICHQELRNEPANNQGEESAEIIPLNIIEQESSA
T1 sequence (looked up) 2: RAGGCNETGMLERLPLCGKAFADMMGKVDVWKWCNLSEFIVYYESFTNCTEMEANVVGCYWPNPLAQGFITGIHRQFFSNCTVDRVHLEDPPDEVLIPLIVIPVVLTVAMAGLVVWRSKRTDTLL

T2: human amylin 3(a) receptor (human calcitonin receptor co-expressed with RAMP-3) on BHK570/CRE-luc cells (human, UniProt P30988 25-474; O60896 24-148)
T2 sequence (looked up) 1: T1 sequence (looked up) 1
T2 sequence (looked up) 2: T1 sequence (looked up) 2

T3: human calcitonin receptor on BHK570/CRE-luc cells (human, UniProt P30988 25-474)
T3 sequence (looked up): T1 sequence (looked up) 1

B1: [N-terminal(C16)]mimylin (peptide)
peptide: Palmitoyl-EASELSTAALGRLSAELHELATLPRTETGPESP-NH2
B2: [N-terminal(C14 diacid-2xgGlu-4xOEG)]mimylin (peptide)
peptide: {C14 diacid-γGlu-γGlu-AEEA-AEEA-AEEA-AEEA}-EASELSTAALGRLSAELHELATLPRTETGPESP-NH2
B3: [N-terminal(C20 diacid-gGlu), des1, 2L, 4Q, 8L, 9V, 15Q, 16R, 19R, 21Q, 23Y, 27Q, 30S, 31Q, 32T, 33Y]mimylin (peptide)
peptide: {C20 diacid-γGlu}-LSQLSTLVLGRLSQRLHRLQTYPRTQTGSQTY-NH2
SMILES: CC(C)C[C@H](NC(=O)CC[C@H](NC(=O)CCCCCCCCCCCCCCCCCCC(=O)O)C(=O)O)C(=O)N[C@@H](CO)C(=O)N[C@@H](CCC(N)=O)C(=O)N[C@@H](CC(C)C)C(=O)N[C@@H](CO)C(=O)N[C@H](C(=O)N[C@@H](CC(C)C)C(=O)N[C@H](C(=O)N[C@@H](CC(C)C)C(=O)NCC(=O)N[C@@H](CCCNC(=N)N)C(=O)N[C@@H](CC(C)C)C(=O)N[C@@H](CO)C(=O)N[C@@H](CCC(N)=O)C(=O)N[C@@H](CCCNC(=N)N)C(=O)N[C@@H](CC(C)C)C(=O)N[C@@H](Cc1c[nH]cn1)C(=O)N[C@@H](CCCNC(=N)N)C(=O)N[C@@H](CC(C)C)C(=O)N[C@@H](CCC(N)=O)C(=O)N[C@H](C(=O)N[C@@H](Cc1ccc(O)cc1)C(=O)N1CCC[C@H]1C(=O)N[C@@H](CCCNC(=N)N)C(=O)N[C@H](C(=O)N[C@@H](CCC(N)=O)C(=O)N[C@H](C(=O)NCC(=O)N[C@@H](CO)C(=O)N[C@@H](CCC(N)=O)C(=O)N[C@H](C(=O)N[C@@H](Cc1ccc(O)cc1)C(N)=O)[C@@H](C)O)[C@@H](C)O)[C@@H](C)O)[C@@H](C)O)C(C)C)[C@@H](C)O
B4: [N-terminal(C18 diacid)]mimylin (peptide)
peptide: {C18 diacid}-EASELSTAALGRLSAELHELATLPRTETGPESP-NH2
SMILES: CC(C)C[C@H](NC(=O)[C@H](C)NC(=O)[C@H](C)NC(=O)[C@@H](NC(=O)[C@H](CO)NC(=O)[C@H](CC(C)C)NC(=O)[C@H](CCC(=O)O)NC(=O)[C@H](CO)NC(=O)[C@H](C)NC(=O)[C@H](CCC(=O)O)NC(=O)CCCCCCCCCCCCCCCCC(=O)O)[C@@H](C)O)C(=O)NCC(=O)N[C@@H](CCCNC(=N)N)C(=O)N[C@@H](CC(C)C)C(=O)N[C@@H](CO)C(=O)N[C@@H](C)C(=O)N[C@@H](CCC(=O)O)C(=O)N[C@@H](CC(C)C)C(=O)N[C@@H](Cc1c[nH]cn1)C(=O)N[C@@H](CCC(=O)O)C(=O)N[C@@H](CC(C)C)C(=O)N[C@@H](C)C(=O)N[C@H](C(=O)N[C@@H](CC(C)C)C(=O)N1CCC[C@H]1C(=O)N[C@@H](CCCNC(=N)N)C(=O)N[C@H](C(=O)N[C@@H](CCC(=O)O)C(=O)N[C@H](C(=O)NCC(=O)N1CCC[C@H]1C(=O)N[C@@H](CCC(=O)O)C(=O)N[C@@H](CO)C(=O)N1CCC[C@H]1C(N)=O)[C@@H](C)O)[C@@H](C)O)[C@@H](C)O
B5: mimylin (peptide)
peptide: EASELSTAALGRLSAELHELATLPRTETGPESP-NH2
B6: [N-terminal(C16 diacid)]mimylin (peptide)
peptide: {C16 diacid}-EASELSTAALGRLSAELHELATLPRTETGPESP-NH2
B7: [N-terminal(C18 diacid), 5I]mimylin (peptide)
peptide: {C18 diacid}-EASEISTAALGRLSAELHELATLPRTETGPESP-NH2
SMILES: CC[C@H](C)[C@H](NC(=O)[C@H](CCC(=O)O)NC(=O)[C@H](CO)NC(=O)[C@H](C)NC(=O)[C@H](CCC(=O)O)NC(=O)CCCCCCCCCCCCCCCCC(=O)O)C(=O)N[C@@H](CO)C(=O)N[C@H](C(=O)N[C@@H](C)C(=O)N[C@@H](C)C(=O)N[C@@H](CC(C)C)C(=O)NCC(=O)N[C@@H](CCCNC(=N)N)C(=O)N[C@@H](CC(C)C)C(=O)N[C@@H](CO)C(=O)N[C@@H](C)C(=O)N[C@@H](CCC(=O)O)C(=O)N[C@@H](CC(C)C)C(=O)N[C@@H](Cc1c[nH]cn1)C(=O)N[C@@H](CCC(=O)O)C(=O)N[C@@H](CC(C)C)C(=O)N[C@@H](C)C(=O)N[C@H](C(=O)N[C@@H](CC(C)C)C(=O)N1CCC[C@H]1C(=O)N[C@@H](CCCNC(=N)N)C(=O)N[C@H](C(=O)N[C@@H](CCC(=O)O)C(=O)N[C@H](C(=O)NCC(=O)N1CCC[C@H]1C(=O)N[C@@H](CCC(=O)O)C(=O)N[C@@H](CO)C(=O)N1CCC[C@H]1C(N)=O)[C@@H](C)O)[C@@H](C)O)[C@@H](C)O)[C@@H](C)O
B8: [N-terminal(C14 diacid)]mimylin (peptide)
peptide: {C14 diacid}-EASELSTAALGRLSAELHELATLPRTETGPESP-NH2
B9: [N-terminal(C18 diacid), 9I]mimylin (peptide)
peptide: {C18 diacid}-EASELSTAILGRLSAELHELATLPRTETGPESP-NH2
SMILES: CC[C@H](C)[C@H](NC(=O)[C@H](C)NC(=O)[C@@H](NC(=O)[C@H](CO)NC(=O)[C@H](CC(C)C)NC(=O)[C@H](CCC(=O)O)NC(=O)[C@H](CO)NC(=O)[C@H](C)NC(=O)[C@H](CCC(=O)O)NC(=O)CCCCCCCCCCCCCCCCC(=O)O)[C@@H](C)O)C(=O)N[C@@H](CC(C)C)C(=O)NCC(=O)N[C@@H](CCCNC(=N)N)C(=O)N[C@@H](CC(C)C)C(=O)N[C@@H](CO)C(=O)N[C@@H](C)C(=O)N[C@@H](CCC(=O)O)C(=O)N[C@@H](CC(C)C)C(=O)N[C@@H](Cc1c[nH]cn1)C(=O)N[C@@H](CCC(=O)O)C(=O)N[C@@H](CC(C)C)C(=O)N[C@@H](C)C(=O)N[C@H](C(=O)N[C@@H](CC(C)C)C(=O)N1CCC[C@H]1C(=O)N[C@@H](CCCNC(=N)N)C(=O)N[C@H](C(=O)N[C@@H](CCC(=O)O)C(=O)N[C@H](C(=O)NCC(=O)N1CCC[C@H]1C(=O)N[C@@H](CCC(=O)O)C(=O)N[C@@H](CO)C(=O)N1CCC[C@H]1C(N)=O)[C@@H](C)O)[C@@H](C)O)[C@@H](C)O
B10: [N-terminal(C12 diacid)]mimylin (peptide)
peptide: {C12 diacid}-EASELSTAALGRLSAELHELATLPRTETGPESP-NH2
B11: [N-terminal(C18 diacid), 17I]mimylin (peptide)
peptide: {C18 diacid}-EASELSTAALGRLSAEIHELATLPRTETGPESP-NH2
SMILES: CC[C@H](C)[C@H](NC(=O)[C@H](CCC(=O)O)NC(=O)[C@H](C)NC(=O)[C@H](CO)NC(=O)[C@H](CC(C)C)NC(=O)[C@H](CCCNC(=N)N)NC(=O)CNC(=O)[C@H](CC(C)C)NC(=O)[C@H](C)NC(=O)[C@H](C)NC(=O)[C@@H](NC(=O)[C@H](CO)NC(=O)[C@H](CC(C)C)NC(=O)[C@H](CCC(=O)O)NC(=O)[C@H](CO)NC(=O)[C@H](C)NC(=O)[C@H](CCC(=O)O)NC(=O)CCCCCCCCCCCCCCCCC(=O)O)[C@@H](C)O)C(=O)N[C@@H](Cc1c[nH]cn1)C(=O)N[C@@H](CCC(=O)O)C(=O)N[C@@H](CC(C)C)C(=O)N[C@@H](C)C(=O)N[C@H](C(=O)N[C@@H](CC(C)C)C(=O)N1CCC[C@H]1C(=O)N[C@@H](CCCNC(=N)N)C(=O)N[C@H](C(=O)N[C@@H](CCC(=O)O)C(=O)N[C@H](C(=O)NCC(=O)N1CCC[C@H]1C(=O)N[C@@H](CCC(=O)O)C(=O)N[C@@H](CO)C(=O)N1CCC[C@H]1C(N)=O)[C@@H](C)O)[C@@H](C)O)[C@@H](C)O
B12: [N-terminal(C18 diacid), 9V]mimylin (peptide)
peptide: {C18 diacid}-EASELSTAVLGRLSAELHELATLPRTETGPESP-NH2
SMILES: CC(C)C[C@H](NC(=O)[C@H](CCC(=O)O)NC(=O)[C@H](Cc1c[nH]cn1)NC(=O)[C@H](CC(C)C)NC(=O)[C@H](CCC(=O)O)NC(=O)[C@H](C)NC(=O)[C@H](CO)NC(=O)[C@H](CC(C)C)NC(=O)[C@H](CCCNC(=N)N)NC(=O)CNC(=O)[C@H](CC(C)C)NC(=O)[C@@H](NC(=O)[C@H](C)NC(=O)[C@@H](NC(=O)[C@H](CO)NC(=O)[C@H](CC(C)C)NC(=O)[C@H](CCC(=O)O)NC(=O)[C@H](CO)NC(=O)[C@H](C)NC(=O)[C@H](CCC(=O)O)NC(=O)CCCCCCCCCCCCCCCCC(=O)O)[C@@H](C)O)C(C)C)C(=O)N[C@@H](C)C(=O)N[C@H](C(=O)N[C@@H](CC(C)C)C(=O)N1CCC[C@H]1C(=O)N[C@@H](CCCNC(=N)N)C(=O)N[C@H](C(=O)N[C@@H](CCC(=O)O)C(=O)N[C@H](C(=O)NCC(=O)N1CCC[C@H]1C(=O)N[C@@H](CCC(=O)O)C(=O)N[C@@H](CO)C(=O)N1CCC[C@H]1C(N)=O)[C@@H](C)O)[C@@H](C)O)[C@@H](C)O

Tests used:
[1] = molecular target: T1, human amylin receptor (human calcitonin receptor + human RAMP3) (human); assay: whole-cell competition vs 125I-rat amylin (Assay Va)
[2] = molecular target: T2, human amylin 3(a) receptor (human …); assay: cell-based or functional assay
[3] = molecular target: T3, human calcitonin receptor on …; assay: cell-based or functional assay

| Binder | IC50 [1] | hAmylin-R funct. EC50 (pM), tested with HSA [2] | hCTR funct. EC50 (pM), tested with HSA [3] |
| --- | --- | --- | --- |
| B1 | 0.435 nM | – | – |
| B2 | 8.38 nM | – | – |
| B3 | – | 44 pM | 50 pM |
| B4 | 0.902 nM | – | – |
| B5 | 0.511 nM | – | – |
| B6 | 0.498 nM | – | – |
| B7 | 0.429 nM | – | – |
| B8 | 1.19 nM | – | – |
| B9 | 0.417 nM | – | – |
| B10 | 8.97 nM | – | – |
| B11 | 1.48 nM | – | – |
| B12 | 0.796 nM | – | – |
